Results from patent US20250027114.

Assays:
[1] = test system: T1, E1-2-ABE8e (Neisseria meningitidis); assay: cell_activity; conditions: PAM N4YNC average, E. coli ABE-PPA; 14% on N4YND
T1 sequence: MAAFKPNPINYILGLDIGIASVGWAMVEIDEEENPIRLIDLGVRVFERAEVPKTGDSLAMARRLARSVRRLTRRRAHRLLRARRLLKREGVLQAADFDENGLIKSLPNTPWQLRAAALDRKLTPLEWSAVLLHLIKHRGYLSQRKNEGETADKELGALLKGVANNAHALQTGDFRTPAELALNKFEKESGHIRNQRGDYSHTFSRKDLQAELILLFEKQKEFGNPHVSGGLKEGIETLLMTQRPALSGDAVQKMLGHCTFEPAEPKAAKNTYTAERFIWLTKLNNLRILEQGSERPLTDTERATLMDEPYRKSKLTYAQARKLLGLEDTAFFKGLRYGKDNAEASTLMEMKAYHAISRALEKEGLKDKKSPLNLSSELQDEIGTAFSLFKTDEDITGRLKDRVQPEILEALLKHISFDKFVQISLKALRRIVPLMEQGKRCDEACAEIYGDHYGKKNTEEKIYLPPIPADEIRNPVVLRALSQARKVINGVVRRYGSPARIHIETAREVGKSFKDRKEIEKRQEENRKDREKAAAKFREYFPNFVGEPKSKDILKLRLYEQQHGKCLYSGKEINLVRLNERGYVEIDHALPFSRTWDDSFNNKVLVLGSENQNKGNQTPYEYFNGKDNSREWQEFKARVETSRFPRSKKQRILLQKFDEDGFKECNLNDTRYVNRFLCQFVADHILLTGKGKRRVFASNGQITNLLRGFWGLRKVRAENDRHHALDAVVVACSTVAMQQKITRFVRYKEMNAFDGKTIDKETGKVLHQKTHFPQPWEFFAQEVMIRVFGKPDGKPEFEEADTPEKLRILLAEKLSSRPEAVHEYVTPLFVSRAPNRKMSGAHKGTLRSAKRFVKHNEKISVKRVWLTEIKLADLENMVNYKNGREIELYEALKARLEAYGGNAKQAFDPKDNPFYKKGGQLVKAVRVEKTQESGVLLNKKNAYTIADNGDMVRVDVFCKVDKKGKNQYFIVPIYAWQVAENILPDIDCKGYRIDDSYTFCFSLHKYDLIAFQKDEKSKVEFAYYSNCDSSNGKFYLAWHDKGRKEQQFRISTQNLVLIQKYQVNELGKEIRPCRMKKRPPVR

[2] = test system: T2, E2-12-ABE8e (Neisseria meningitidis); assay: cell_activity; conditions: PAM N4YNC average, E. coli ABE-PPA; 33% on N4YND
T2 sequence: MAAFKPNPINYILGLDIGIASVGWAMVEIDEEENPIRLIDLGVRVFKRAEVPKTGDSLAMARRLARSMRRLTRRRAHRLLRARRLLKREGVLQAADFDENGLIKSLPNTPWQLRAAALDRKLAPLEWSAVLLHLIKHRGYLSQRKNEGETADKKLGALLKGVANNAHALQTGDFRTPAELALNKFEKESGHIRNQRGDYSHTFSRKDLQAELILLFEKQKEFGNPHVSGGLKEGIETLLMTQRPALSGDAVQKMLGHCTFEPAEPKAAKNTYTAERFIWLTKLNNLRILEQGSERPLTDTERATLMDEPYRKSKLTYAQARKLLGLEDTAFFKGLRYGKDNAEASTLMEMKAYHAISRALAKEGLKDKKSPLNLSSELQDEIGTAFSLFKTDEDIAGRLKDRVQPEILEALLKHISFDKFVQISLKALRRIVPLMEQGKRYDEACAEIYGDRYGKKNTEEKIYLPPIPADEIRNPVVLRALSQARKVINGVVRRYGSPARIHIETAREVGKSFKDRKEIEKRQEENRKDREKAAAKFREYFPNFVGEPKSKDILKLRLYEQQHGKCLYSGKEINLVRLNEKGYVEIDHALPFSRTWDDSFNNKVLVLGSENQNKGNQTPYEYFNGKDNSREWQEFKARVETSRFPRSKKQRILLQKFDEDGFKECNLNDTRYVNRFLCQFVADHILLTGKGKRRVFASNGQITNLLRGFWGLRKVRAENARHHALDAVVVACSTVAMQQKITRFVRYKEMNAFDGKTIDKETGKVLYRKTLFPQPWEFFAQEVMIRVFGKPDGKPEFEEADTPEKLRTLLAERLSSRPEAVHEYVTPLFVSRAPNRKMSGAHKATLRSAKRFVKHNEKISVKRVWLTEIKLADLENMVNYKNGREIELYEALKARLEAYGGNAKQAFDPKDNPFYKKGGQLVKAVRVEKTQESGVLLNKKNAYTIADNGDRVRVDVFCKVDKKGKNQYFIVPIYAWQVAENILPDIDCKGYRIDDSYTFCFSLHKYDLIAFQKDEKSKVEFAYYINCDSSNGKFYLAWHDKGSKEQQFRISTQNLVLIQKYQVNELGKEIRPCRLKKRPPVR

Sequence: AUGGCCCAGACUGAGCACGUGAGGUUGUAGCUCCCUUUCUCAUUUCGGAAACGAAAUGAGAACCGUUGCUACAAUAAGGCCGUCUGAAAAGAUGUGCCGCAACGCUCUGCCCCUUAAAGCUUCUGCUUUAAGGGGCAUCGUUUA / ATGGCCCAGACTGAGCACGTGA / TCACGTGCTCAGTCTGGGCCAT [ABE-PPA sgRNA ; ABE-PPA protospacer library target]
- activity (% A-to-G conversion) [1]: 29
- activity (% A-to-G conversion) [2]: 58
